According to patent publication US9416187B2, “CD-20 specific antibodies and methods of employing same” (Duke University, dated 2016):
Changes are numbered by the printed parent chain.

T1: mouse CD20 (mouse, UniProt P19437)
T1 sequence: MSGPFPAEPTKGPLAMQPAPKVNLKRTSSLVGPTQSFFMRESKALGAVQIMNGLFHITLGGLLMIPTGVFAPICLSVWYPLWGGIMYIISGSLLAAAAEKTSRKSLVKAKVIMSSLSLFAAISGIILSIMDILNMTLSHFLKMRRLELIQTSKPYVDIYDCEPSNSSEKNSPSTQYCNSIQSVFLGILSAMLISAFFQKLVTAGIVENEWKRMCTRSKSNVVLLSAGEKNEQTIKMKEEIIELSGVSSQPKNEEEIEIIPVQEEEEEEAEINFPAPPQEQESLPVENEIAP

T2: human CD20 (human, UniProt P11836)
T2 sequence: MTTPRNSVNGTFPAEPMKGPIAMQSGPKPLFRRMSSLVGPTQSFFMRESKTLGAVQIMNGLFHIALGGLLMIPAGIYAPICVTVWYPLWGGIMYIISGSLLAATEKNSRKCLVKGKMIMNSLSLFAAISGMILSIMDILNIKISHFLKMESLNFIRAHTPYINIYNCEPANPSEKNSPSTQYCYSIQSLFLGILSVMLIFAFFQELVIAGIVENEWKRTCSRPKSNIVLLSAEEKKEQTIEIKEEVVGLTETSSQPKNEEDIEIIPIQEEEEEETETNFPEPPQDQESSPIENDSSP

B1: HB20-3 monoclonal antibody (antibody, V domains shown)
VH: EVQLQESGAELVKPGASVKMSCKASGFTFTNYNMHWLKQTPGQGLEWIGAIYPENGDTSYNQKFKGKATLTADKASSTAYMHLSSLTSEDSAVYFCARFYYYGSYYGAMDYWGQGTSVTVSS
VL: MWGSVFNFSIVGARCDIQMTQSPASLSASVGETVTITCRASGNIHNYLAWYQQKQGKSPQLLVYNAKTLADGVPSRFSGSGSGTQFSLKINSLQPEDFGSYYCQHFWSTPWTFGGGTKLEIKR
B2: HB20-4 monoclonal antibody (antibody, V domains shown)
VH: B1 VH with L37V, K63R, A75S, S91T, M109L
VL: B1 VL with N43S, Q55L, T109I
B3: MB20-1 monoclonal antibody (antibody, V domains shown)
VH: EVQLQESGGGLVQPGGSLKLSCAASGFTFSDYGMAWVRQAPRKGPEWVAFISNLAYSIYYADTVTGRFTISRENAKNTLYLEMSSLRSEDTAMYFCTRTGYYALDYWGQGTSVTVSS
VL: NIMMTQSPSSLAVSAGEKVTMRCKSSQSVLYSSKRKNYLAWYQQKPGKSPTLLIYWASTRESGVPDRFTGSGSGTDFTLTITSVQAEDLAVYYCHQYLSSFTFGGGTKLEIKR
B4: MB20-13 monoclonal antibody (antibody, V domains shown)
VH: B3 VH
VL: EIVLAQSPTTTAASPGEKITITCSASSSITSNYLHWYQQKPGFSPKLLIYRTSNLASGVPARFSGSGSGTSYSLTIGTMEAEDVATYYCQQGSSKTLTFGAGTKLELKR
B5: HB20-25 monoclonal antibody (antibody, V domains shown)
VH: EVQLQESGAELVKPGASVKMSCKASGFRFTNYNLHWVKQTPGQGLEWIGAIYPGNGETSYNQKFKGKATLTADKSSSTAYMQLRSLTSGDSAVYYCARFYYYGSSYGAMDYWGQGTSVTVSS
VL: MWGSVFNFSIVDARCDIQMTQSPASLSVSVGETVTITCRASENIYSNLAWYQQKQGKSPQLLVYAATNLADGVPSRFSGSGSGTQYSLKINSLQSEDFGSYYCQHFWGIPWTFGGGTKLEIKR
B6: MB20-2 monoclonal antibody (antibody, V domains shown)
VH: EVQLQESGPELVKPGASVKISCKASGYMFTDYYIKWVKQSHGKSLEWIGDINPNNGDTIYNQKFKGKATLTVDKSSNTAYMDLRSLTSEDSAVYYCARERFAYWGQGTLVTVSA
VL: B4 VL with A5T, T11M, A25V, T30R, I76V, G77A, K95I, T96P
B7: MB20-18 monoclonal antibody (antibody, V domains shown)
VH: B6 VH with P9L, E10D, M28T, I34M, E46D, T58I, K65E, N77S, D82E
VL: SIVMTQTPKFLLVSTGDRVTITCKASQTVTNDLAWYQQKPGQSPKLLIYYASNRYTGVPDRFTGSGYGTDFTFTINTVQAEDLAVYFCQQDYSSPLTFGAGTKLELKR
B8: MB20-7 monoclonal antibody (antibody, V domains shown)
VH: B6 VH with E10D, I34M, I59T, K65E, N77S, D82E
VL: B4 VL with I2L, A5T, T11K, A25V, T30R, K40R, K95L, T96P
B9: MB20-14 monoclonal antibody (antibody, V domains shown)
VH: B6 VH with S85I
VL: B4 VL with A5T, T11M, A25V, T30R, I76V, G77A, K95I, T96P
B10: MB20-10 monoclonal antibody (antibody, V domains shown)
VH: B6 VH with E10D, M28T, I34M, E46D, T58I, K65E, N77S, D82E
VL: B4 VL with A5T, T11M, A25V, S28N, T30R, E80K, K95I, T96P
B11: MB20-8 monoclonal antibody (antibody, V domains shown)
VH: B6 VH with E10D, M28T, I34M, E46D, T58I, K65E, N77S, D82E
VL: B4 VL with A5T, T11M, A25V, S28N, T30R, E80K, K95I, T96P

Experiments:
mouse CD20 [1] = target: T1, mouse CD20; experiment: flow cytometry, spleen CD19+ B cells, control staining
human CD20 [2] = target: T2, human CD20; experiment: flow cytometry, Raji cells, saturating antibody
human CD20 [3] = target: T2, human CD20; experiment: flow cytometry, BJAB cells, saturating antibody
human CD20 [4] = target: T2, human CD20; experiment: flow cytometry, DHL-4 cells, saturating antibody
human CD20 [5] = target: T2, human CD20; experiment: flow cytometry, human blood B cells, saturating antibody
mouse CD20 [6] = target: T1, mouse CD20; experiment: flow cytometry, spleen CD19+ B cells, 0.5 µg/mL antibody

Row | Molecule | mean linear fluorescence intensity (mouse CD20 [1]) | mean linear fluorescence intensity (human CD20 [2]) | mean linear fluorescence intensity (human CD20 [3]) | mean linear fluorescence intensity (human CD20 [4]) | mean linear fluorescence intensity (human CD20 [5]) | B cell reactivity (mean linear fluorescence intensity) (mouse CD20 [6])
1 | isotype-matched control monoclonal antibodies | < 6 | – | – | – | – | –
2 | B1 anti-CD20 monoclonal antibody | – | 944 | 700 | 486 | 277 | –
3 | B9E9 anti-CD20 monoclonal antibody | – | 438 | 377 | 162 | 112 | –
4 | 1F5 anti-CD20 monoclonal antibody | – | 455 | 386 | 169 | 104 | –
5 | B1 | – | 2220 | 1200 | 765 | 469 | –
6 | B2 | – | 1580 | 1100 | 578 | 397 | –
7 | B3 | – | – | – | – | – | 69
8 | B4 | – | – | – | – | – | 603
9 | B5 | – | 1350 | 849 | 514 | 227 | –
10 | B6 | – | – | – | – | – | 209
11 | B7 | – | – | – | – | – | 729
12 | B8 | – | – | – | – | – | 525
13 | B9 | – | – | – | – | – | 166
14 | B10 | – | – | – | – | – | 317
15 | B11 | – | – | – | – | – | 240
